Test results published in patent publication US7288381 (PHADIA, dated 2007).

Target: T1, β-gal alone (λgt 11 phage control proteins) (UniProt P00722 2-1024 = β-galactosidase)
T1 construct: Negative control dot; also called β-gal alone (4); λgt 11 phage control proteins (4)
Assay: dot blot of β-gal fusion proteins, anti-human Fab detection
Experimental: Expression of Recombinant Fragments of the Phl p 2 Allergen for Mapping of the Binding Sites of the Human IgE Fabs Lambda gt11 phage clones expressing β-galactosidase fused complete Phl p 2 and Phl p 2 fragments were generated as described (8). E. coli Y1090 were plated as confluent lawn onto LB plates containing 100 mg/l ampicillin (19). Two µl aliquots of phage lysates containing >10^6 plaque-forming units of each phage clone were dotted onto the E. coli lawn in defined order and plates were incubated at 43° C. until plaques became visible. The synthesis of recombinant protein was induced by overlay with 10 mM IPTG-soaked nitrocellulose filters (Schleicher& Schuell, Dassel, Germany) for additional 4 hours The clones which reacted with the IgE Fabs were identified by immunoscreening. For this purpose filters were washed twice for 5 min and once for 30 min with TBST containing 0.5% w/v BSA at roomtemperature and then probed overnight with E. coli extracts containing anti-Phl p 2 Fab and, for control purposes, with extracts from E. coli transformed with the empty pComb 3H plasmid at 4° C. After washing, the Fabs were detected with an alkaline phospatase-coupled goat anti-human Fab antiserum diluted 1:5000 in TBST/0.5% w/v BSA.
A Recombinant Fragment Comprising the N-terminal 64 Amino Acids of Phl p 2 Contains the Binding Site for the IgE Fabs In order to determine the binding site for the rPhl p 2-specific IgE Fabs, nitrocellulose-dotted complete β-gal-fused rPhl p 2 allergen (96 aa), a N-terminal rPhl p 2 fragment comprising the first 64 aa portion (1-64) and a 69 aa long C-terminal rPhl p 2 fragment (28-96 aa) were exposed to the Fabs (FIG. 2A). […] The N-terminal and C-terminal fragment have been indicated in the model (FIG. 2B).

T1 sequence (P00722 2-1024 limits assumed): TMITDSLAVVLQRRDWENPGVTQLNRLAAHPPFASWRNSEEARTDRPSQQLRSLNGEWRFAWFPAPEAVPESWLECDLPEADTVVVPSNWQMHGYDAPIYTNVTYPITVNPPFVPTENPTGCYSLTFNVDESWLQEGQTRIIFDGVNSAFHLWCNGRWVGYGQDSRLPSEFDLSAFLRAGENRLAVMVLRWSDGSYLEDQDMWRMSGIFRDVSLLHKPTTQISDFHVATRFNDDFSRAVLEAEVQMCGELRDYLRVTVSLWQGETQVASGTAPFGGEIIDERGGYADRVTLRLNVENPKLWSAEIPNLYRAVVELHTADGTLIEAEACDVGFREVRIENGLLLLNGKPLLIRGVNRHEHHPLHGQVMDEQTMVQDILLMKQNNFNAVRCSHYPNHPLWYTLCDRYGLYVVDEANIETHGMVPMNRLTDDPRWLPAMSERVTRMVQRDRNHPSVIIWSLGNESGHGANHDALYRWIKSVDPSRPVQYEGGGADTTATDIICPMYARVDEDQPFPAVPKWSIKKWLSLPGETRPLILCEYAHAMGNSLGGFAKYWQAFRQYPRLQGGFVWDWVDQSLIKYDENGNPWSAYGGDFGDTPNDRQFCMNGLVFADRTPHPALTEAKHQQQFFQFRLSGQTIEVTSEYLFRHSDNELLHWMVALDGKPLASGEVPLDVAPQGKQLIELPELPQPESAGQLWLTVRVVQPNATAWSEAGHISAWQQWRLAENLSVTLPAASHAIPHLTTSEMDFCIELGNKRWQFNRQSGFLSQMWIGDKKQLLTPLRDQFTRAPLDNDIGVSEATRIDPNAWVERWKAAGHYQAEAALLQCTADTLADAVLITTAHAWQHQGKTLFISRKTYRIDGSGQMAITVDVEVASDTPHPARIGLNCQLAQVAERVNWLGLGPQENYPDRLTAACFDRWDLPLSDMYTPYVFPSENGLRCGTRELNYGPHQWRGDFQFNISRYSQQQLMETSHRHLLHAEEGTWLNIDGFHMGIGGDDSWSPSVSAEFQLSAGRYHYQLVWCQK

Row | Binder | binding result
1 | Phl p 2-specific human IgE Fab, clone 94 (Fab, V domains shown, Human IgE Fab (heavy chain fragment Fd plus kappa light chain) expressed from pComb3H in E. coli and used as bacterial extract; they start at the Xho I / Sac I cloning sites; also called clone 94-derived IgE Fab; rPhl p 2-specific IgE Fab) VH: LESGPGLVKPAQTLSLSCAVSGGSIRSGGYYWSWIRQHPGKGLEWIGYIYHSGNTYYNPSLKSRIAMSVDTSENKFSLRLNSVTAADTAVYYCARLDGYTLDIWGQGTLVTVSS VL: ELTQSPSSLSASVGDRVTISCRASQRINTYLNWYQHKPGKAPKLLIYAASSLQSGVPSRFSGSGYGTDFTLTISSLQFEDFASYYCQESLSASYTFGQGTKVEIKR | no binding
2 | Phl p 2-specific human IgE Fab, clone 60 (Fab, V domains shown, Human IgE Fab (Fd plus kappa light chain) expressed from pComb3H in E. coli and used as bacterial extract; also called rPhl p 2-specific IgE Fab; anti-Phl p 2 Fab) VH: LESGPGLVKPSQTLSLTCTVSGGSIRSGGYYWSWVRQPPGKGLEWIGNIYHSGNTYYNPSLKSRITMSVDTSKNHFSLRLTSVTAADTAVYYCARSDGYTLDNWGQGTLVTVSS VL: ELTQSPSSLSASVGDRVTITCRARQSISTYLNWYQQKPGKAPKLLIWSASNLQSGVPSRFSGSGSGTEFTLTISNLQFEDFASYYCQQSYTTLYTFGSGTKLEIKR | no binding
3 | Phl p 2-specific human IgE Fab, clone 100 (Fab, V domains shown, Human IgE Fab (Fd plus kappa light chain) expressed from pComb3H in E. coli and used as bacterial extract; also called rPhl p 2-specific IgE Fab; anti-Phl p 2 Fab) VH: LESGPGLVKPSQTLSLTCTVSGGSIRSGGYYWSWIRQPPGKGLEWIGYIYHSGNTYYNPSLKSRVTMSVDTSKNHFSLRLSSVTAADTAVYYCARSDGYTLDNWGQGTLVTVSS VL: ELTQSPSSVSASVGDRVTITCRASQGISSWLAWYQHQPGKAPKLLIYSASSLQSGVPSRFSGSGYGTDFSLTISSLQFEDSATYYCQQANSFPYTFGQGTKVEIKR | no binding
